# Target: PS2 S-layer protein of Corynebacterium glutamicum 541 (ATCC-13058) (Corynebacterium glutamicum 541 (ATCC-13058))
# Experiment: cryo-EM structure; single particle cryo-EM of S-layer sheets purified from cells with SDS; 50 mM HEPES/NaOH pH 7.5, 150 mM NaCl, 1 mM MgCl2, 2 mM CaCl2; C6 symmetry; 3.1 Å; lattices still intact after 10 mM EDTA or 10 mM EGTA for 2 h
substance,measurement,value
PS2 S-layer protein of Corynebacterium glutamicum 541 (ATCC-13058) (natural protein),stoichiometry N,6

# — PMC12021427
